# Fewer inactive variants are shown than the library holds.
# What was measured:
# biotinyl-Phe-oxazolone = experiment: self-aminoacylation, catalytic enhancement (BFO) (fold over background); higher = more active; k-Seq, kA / k0A0; sequences stand for … in GGGAAUGGAUCCACAUCUACGAAUUC…UUCACUGCAGACUUGACGAAGCUG
# How it was run: (§1)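 Each biotinyl-aminoacyl-oxazolone, at 2–1250 μM, was incubated with mutagenized RNA pools (0.43 μM) carrying a 21-nt variable region. The 50 μL reactions contained HEPES/NaCl/KCl/MgCl2/CaCl2 buffer with 5% acetonitrile at pH 6.9–7.0 and ran for 90 minutes at room temperature. After streptavidin capture, RNA was measured by qPCR in triplicate and by Illumina sequencing, and catalytic enhancement was calculated as median kA over the uncatalyzed rate from a pseudo-first-order fit of per-sequence fraction reacted.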
# biotinyl-Val-oxazolone = experiment: self-aminoacylation, catalytic enhancement (BVO) (fold over background); higher = more active; k-Seq, kA / k0A0; sequences stand for … in GGGAAUGGAUCCACAUCUACGAAUUC…UUCACUGCAGACUUGACGAAGCUG
# How it was run: as §1
# biotinyl-Trp-oxazolone = experiment: self-aminoacylation, catalytic enhancement (BWO) (fold over background); higher = more active; k-Seq, kA / k0A0; sequences stand for … in GGGAAUGGAUCCACAUCUACGAAUUC…UUCACUGCAGACUUGACGAAGCUG
# How it was run: as §1
# biotinyl-Leu-oxazolone = experiment: self-aminoacylation, catalytic enhancement (BLO) (fold over background); higher = more active; k-Seq, kA / k0A0; sequences stand for … in GGGAAUGGAUCCACAUCUACGAAUUC…UUCACUGCAGACUUGACGAAGCUG
# How it was run: as §1
# biotinyl-Ile-oxazolone = experiment: self-aminoacylation, catalytic enhancement (BIO) (fold over background); higher = more active; k-Seq, kA / k0A0; sequences stand for … in GGGAAUGGAUCCACAUCUACGAAUUC…UUCACUGCAGACUUGACGAAGCUG
# How it was run: as §1
# biotinyl-Met-oxazolone = experiment: self-aminoacylation, catalytic enhancement (BMO) (fold over background); higher = more active; k-Seq, kA / k0A0; sequences stand for … in GGGAAUGGAUCCACAUCUACGAAUUC…UUCACUGCAGACUUGACGAAGCUG
# How it was run: as §1
Sequence,self-aminoacylation (biotinyl-Phe-oxazolone),self-aminoacylation (biotinyl-Val-oxazolone),self-aminoacylation (biotinyl-Trp-oxazolone),self-aminoacylation (biotinyl-Leu-oxazolone),self-aminoacylation (biotinyl-Ile-oxazolone),self-aminoacylation (biotinyl-Met-oxazolone)
AUUCAGCUAGGACAUCGGGUG [Fam2.2 aminoacylation ribozyme variant],42.1,3.53,4.43,5.98,3.53,4.65
CCACACAUCAAGCAAUAGGUC [Fam1B.1 aminoacylation ribozyme variant],1.52,1.02,0.736,0.574,0.864,0.698
CCACACUUCGAGCAAUCGGUU [Fam1B.1 aminoacylation ribozyme variant],0.768,1.63,1.65,1.1,1.41,1.83
AUAACCCUGGUCCUCGAGUGA [Fam2.1 aminoacylation ribozyme variant],13.1,1.79,3.38,3.52,1.91,2.77
AUUACCAUGGUCCUCGAGUGA [Fam2.1 aminoacylation ribozyme variant],29.3,2.68,4.82,5.83,2.48,4.88
AACUUUGCUAAUUGUCGCAAG [Fam3.1 aminoacylation ribozyme variant],9.97,2.39,4.3,2.44,2.78,2.71
AUGACCGUGGUCAUCGAGUGA [Fam2.1 aminoacylation ribozyme variant],39.7,3.22,7.37,7.27,3.34,6.71
AUUACCAUGGUCAUCGAGUGG [Fam2.1 aminoacylation ribozyme variant],2.67,1.63,2.18,3.14,1.72,2.45
AUUCCCCAGGUCAUCGAGUGA [Fam2.1 aminoacylation ribozyme variant],21.1,3.75,6.65,4.83,3.12,4.86
AUUCACGAAGGUCAUCGGGUG [Fam2.2 aminoacylation ribozyme variant],89.6,6.74,8.81,11.3,5.12,10.5
AAGUUUGCUGAUAGUCGCCAG [Fam3.1 aminoacylation ribozyme variant],4.26,1.53,1.44,2.22,1.38,1.41
GUACUCCAAACAAUCGGUCUG [Fam1A.1 aminoacylation ribozyme variant],2.05,1.04,1.84,0.944,1.06,0.967
AAUUUUUCUAAUAGUCGCAAG [Fam3.1 aminoacylation ribozyme variant],3.68,1.75,1.54,1.75,1.88,1.7
CAACACUUCAAGCAAUCGGUG [Fam1B.1 aminoacylation ribozyme variant],4.92,2.73,3.87,4.86,3.09,4.13
AGGUUCGCUAAUAGUCGCAAG [Fam3.1 aminoacylation ribozyme variant],12.3,2.34,4.12,3.26,2.82,2.81
AUUACCCUGGUCACCCAGUGA [Fam2.1 aminoacylation ribozyme variant],46.1,3.6,8.27,6.87,4.12,7.54
CCACUUAAAACAAUCGGUCUG [Fam1A.1 aminoacylation ribozyme variant],0.816,1.13,1.12,1.05,1.11,1.44
AUUACCCGGGUCCUCGAGUGA [Fam2.1 aminoacylation ribozyme variant],47.4,3.84,7.11,7.78,3.5,5.42
CCACACUUCAACCACUCGGUC [Fam1B.1 aminoacylation ribozyme variant],0.849,1.28,0.978,1.1,1.18,1.24
CCACACGUCAAGCAAUCGAUC [Fam1B.1 aminoacylation ribozyme variant],0.631,0.921,0.645,0.62,0.667,0.657
AUUCACCCACGUCAUCGGGUG [Fam2.2 aminoacylation ribozyme variant],37.1,3.23,3.99,6.88,2.76,3.91
CCACACCUGAAGCAAUCGGUC [Fam1B.1 aminoacylation ribozyme variant],0.952,1.18,0.911,0.946,1.01,0.903
AUUCACCAAGGUCAUCGGGUG [Fam2.2 aminoacylation ribozyme variant],75.8,5.71,8.61,12.3,5.52,9.68
AUACACCUCGGUCAUCGGGUG [Fam2.2 aminoacylation ribozyme variant],23.3,3.18,3.09,3.14,2.82,3.08
GUACUUCAAACGAUCGGUCUG [Fam1A.1 aminoacylation ribozyme variant],1.38,1.08,1.8,1.32,1.14,1.13
AUUACCCUGGUAAUAGAGUGA [Fam2.1 aminoacylation ribozyme variant],125,6.61,17.9,16.1,6.19,16.2

Sequence,self-aminoacylation (biotinyl-Phe-oxazolone),self-aminoacylation (biotinyl-Val-oxazolone),self-aminoacylation (biotinyl-Trp-oxazolone),self-aminoacylation (biotinyl-Leu-oxazolone),self-aminoacylation (biotinyl-Ile-oxazolone),self-aminoacylation (biotinyl-Met-oxazolone)
CCACAAUUCAAGCAAUCGGAC [Fam1B.1 aminoacylation ribozyme variant],0.942,0.798,0.711,0.884,1.15,0.783
CCACACUUCAAUCAAUCUGUC [Fam1B.1 aminoacylation ribozyme variant],0.748,0.58,0.342,0.343,0.425,0.429
CUUACCCUUGUCAUCGAGUGA [Fam2.1 aminoacylation ribozyme variant],7.91,3.03,5.14,4.14,2.56,4.62
AUUAGCCUGGUCAUCGUGUGA [Fam2.1 aminoacylation ribozyme variant],21.6,2.07,4.27,3.17,1.96,3.38
CUUCACCUAGCUCAUCGGGUG [Fam2.2 aminoacylation ribozyme variant],9.04,2.37,2.82,2.43,1.76,2.21
AAGUUUGCUAUUAGUCUCAAG [Fam3.1 aminoacylation ribozyme variant],1.66,1.07,0.975,0.928,0.998,0.976
AUUACUCUGGUCUUCGAGUGA [Fam2.1 aminoacylation ribozyme variant],21.2,2.85,7.1,5.04,3.13,5.11
AAGUUUGCUAGUAGUCCCAAG [Fam3.1 aminoacylation ribozyme variant],1.65,1.14,1.68,0.873,1.01,0.75
AUCCAUCUAGGUCAUCGGGUG [Fam2.2 aminoacylation ribozyme variant],29.6,3.94,5.63,6.36,4.35,7.36
AAGGUUGCUAAUAGUCGGAAG [Fam3.1 aminoacylation ribozyme variant],4.52,0.973,3.38,1.23,1.51,1.08
AAGUUUGAUAAUAGUCGGAAG [Fam3.1 aminoacylation ribozyme variant],0.778,0.572,0.436,0.536,0.514,0.556
AUUCACGUAGGUGAUCGGGUG [Fam2.2 aminoacylation ribozyme variant],20.3,3.52,3.33,4.12,2.91,3.98
CCAGACUCCAAGCAAUCGGUC [Fam1B.1 aminoacylation ribozyme variant],2.16,1.23,1.48,1.23,1.22,1.17
AUCCACCUAGCUCAUCGGGUG [Fam2.2 aminoacylation ribozyme variant],23.3,2.89,2.55,2.55,2.2,3.28
AUUACGCUGGUUAUCGAGUGA [Fam2.1 aminoacylation ribozyme variant],27.5,3.68,6.53,5.48,3.22,5.92
AUUCGCCUAGGUCAUCGGCUG [Fam2.2 aminoacylation ribozyme variant],6.51,2.16,2.11,2.16,2.08,1.95
CCACAGUUCAAGCAAUAGGUC [Fam1B.1 aminoacylation ribozyme variant],1.14,0.862,0.858,0.731,0.794,0.783
CCUCACUUCAAGCAAUCGGUG [Fam1B.1 aminoacylation ribozyme variant],25.3,4.01,6.88,9.05,4.12,6.58
AUUACCCUGGUCAUCCAGUUA [Fam2.1 aminoacylation ribozyme variant],0.726,1.08,0.433,0.855,0.875,0.914
AAGUUUGCUAAUAGUCGGAAU [Fam3.1 aminoacylation ribozyme variant],1.54,1.41,1.18,1.41,1.37,1.5
CCACGCUACAAGCAAUCGGUC [Fam1B.1 aminoacylation ribozyme variant],1.3,0.999,1.2,0.851,0.937,0.858
AUUACCCGAGUCAUCGAGUGA [Fam2.1 aminoacylation ribozyme variant],62.6,4.68,10.2,8.84,4.27,8.55
CUACUUCAAACAAUCGGCUUG [Fam1A.1 aminoacylation ribozyme variant],2.59,1.35,2.53,1.21,1.27,1.1
CUUCGUCAAACAAUCGGUCUG [Fam1A.1 aminoacylation ribozyme variant],9.15,1.55,2.23,1.62,1.87,1.65
AUAACCCUGGUCAGCGAGUGA [Fam2.1 aminoacylation ribozyme variant],25.1,2.92,6.19,5.25,3.52,4.66

# Source: the supplement of paper PMC9233669
